Consider 17 sequences from a protein production outcome set (Wang et al. 2014).

The series is described as follows: label from the status in PepcDB records.
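Also: failed if final PepcDB status was selected cloned or expressed and not failed if soluble or beyond.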

“MIYFCHAPNDRAIAEKIYFSLKQTGLTCWIPSQDIMAGQYYVEAIANAIEKSDIVVFIFSSHSNTSIQVIDELQKASSLNKTIIPFCVDRAMPSEPIEHYLSSPYKVDATIGLPDDNIAKLQNIIKQIYNQSSVHNANDINTVKDTFAPSNPLENNTNIIKDASDNNSQESIQFNGVINSANSQPPQNPNLPPQHQMNPNFNNTVNNMDRNMNYPIKQNVRPNPQVKSSNKIKIPLIIGGSIAGGIILLSILFMLGKNLLFSTLINSHRPSDNPVIGSNIRIDGSKYTEEEIIEFTKNAILELDRLQASREFYDTYAYNAPEYDLMRIQENVFFSLMDLDVVRFEEVAILGKNEKEHGIEYLLKVDFVCYADYEYTENNETVHRKGEALLYNNVVILETPNDGLKYLYMEGIFEDELNARNENLESSYREIAESGDVNTEDTIQTYLPDSTDEDTIMSVKDIVKKNDHKVVAVYVDVPGGQSQGSGFFIKDGVIVTNYHVIEGGKSAKILLSNGNYVDVEGVLYTDSDVDIAVLKLVNEVGIEPVTIGQARDSDKGSIAVAIGSPLGLFNTVSTGIISNFWEANGVNLIQISIPITHGNSGGALFNESGKLIGITSSGIGEANLNFAISSTHIIPICEDIKNIPYNQLNAVPLSSAGGNINSITRQAGSSNSNQSSSSGKSLLSSKYRFVNSDKPISNDATYTSDLQTIYDLALNKYYAKEDLYRDLDYAFDYILDYGTKYYLEYLEYILHETYIKEDVENFNKINESVLEVLNTTGEYIEFTADEIEIIGAGIKNDGTIDGIIVRALFYENSEPYVRSKFYFRANYDAWSYVDGFLYVGEVTEK”: the protein production result is listed as “failed”.

As to “MIYGILSKNLGMPTPTFLVCPDVVKFENVGQIAVVNGMVYLGGSVGIDKSGTLHKGLEEQTRQTFDNIRKCLEYANSGLDYIVSLNIFLSTSLSDSEEARFNELYREVFCVPATRPCRCCVRAQLQEGLLVEVVNVVAAQK”, the protein production entry is given as “not failed”.

With “MIYLAITTLIWAFSFGLIGNALKGLDPLQIADTRLLLALIAFIPFMKFGNTNGKEKRQLILLGALQYGVMYTCYLSAFRYLPSHLVALFSVLTPLYIVIINDLRQRSFTPWYLVATVLSVFGAAIIKMGNIDSNEIWLGFGLMQVANLAFAFGQVYYRDWKRSRAHITDSSIFGFLYLGAAIFTTIATLLISHQPPIPLNATPTQWFVLVYMGIIASGLCFFLWNKGGTQTSVGVLATFNNAVVPLAMFASLFIFGEAKGGTPEELVRLTIGSLLIVSALLIAKRK”, the protein production result is on record as “failed”. The same measure for “MIYLFLALLSYACTYCLVGLLIQGQLADVAEGLRHRPDAPTPGEYLREVGPRARQARRQYTLIAGSVLAVLACLIASGFG”: “failed”.

Regarding “MIYLHAIDPIAFSLGPVQVHWYGLMYLAAFFSAWALGRSRILRGRLPGVDMDGFSDLLFYGMLGVVLGGRIGYMLFYAFETFLANPLILFKVWEGGMSFHGGLLGVLIACWLWARKHRLHFFDVMDFVAPLVPLGLGFGRLGNFVGGELWGKFTQAGWGVIFPHAPELADRLPAQIQAQYAAGALNQFARHPSQLYEAALEGVVMFVVLWTFSMKPRARYAVSGLFALLYGVFRFIVEFVRVPDAPIGYLAFNWLTMGQILSLPLVAVGLVLLAMSRRAPVLQPVLPVPAGVEAAK”, the protein production entry is on record as “failed”. The entry for “MIYLLLGAVIITFLLWPRGRALLKGDGWRVGAGAAAIAAFAVAAYATIRGAWGTGIVLGVIGLWSVTEARRRPIVRREVVHPPKPELSLSEARAILGVGPEASLAEVKAAYNRLIQMAHPDKGGTEGLAAQLNAARDRLIKPRGSARVEP” is “failed”.

Regarding “MIYWLYLAVFFLLSALDAKEIAMQRFDKQNHKIFEILADKVSAKDNVITASGNAILLNYDVYILADKVRYDTKTKEALLEGNIKVYRGEGLLVKTDYVKLSLNEKYEIIFPFYVQDSVSGIWVSADIASGKDQKYKVKNMSTSGCSIDNPIWHVNATSGSFNMQKSHLSMWNPKIYVGDIPVLYLPYIFMSTSNKRTTGFLYPEFGTSNLDGFIYLQPFYLAPKNSWDMTFTPQIRYKRGFGLNFEARYINSKNDRFLFNARYFRNYTQYVKRYDLRNQNIYGFEFLSSSRDTLQKYFHLKSNIDNGHYIDFLYMNDLDYVRFEKVNKRITDATHMSRANYYLQTENNYYGLNIKYFLNLNKINNNRTFQSVPNLQYHKYLNSLYFRNLLYSVDYQFRNTAREIGYGYVQNALNVPVGLQFSLFKKYLSLGLWNDLQLSNVALMQSKNSFVPTIPNESREFGNFVSSNFSMYVNTDLAREYNKLFHTIQLEAIFNIPYYTFKNGLFSQNMYALSAQALNSYTSPLLRDYDYQGRLYDSVWNPSSILPSNASNKTVDLTLTQYLYGLGGQELLYFKISQLINLDDKVSPFRMPLESKIGFSPLTGLNIFGNVFYSFYQNRLEEISVNANYQRKFLSFNLSYFLKNNFSSGINSIVENLRII”, the protein production result is on record as “failed”. Consider “MKAADEPAYLTVGTDVSAKYRGAFCEAKIKTVKRLVKVKVLLKQDNTTQLVQDDQVKGPLRVGAIVETRTSDGSFQEAIISKLTDASWYTVVFDDGDERTLRRTSLCLKGERHFAESETLDQLPLTNPEHFGTPVIAKKTNRGRRSSLPVTEDEKEEESSEEEDEDKRRLNDELLGKVVSVVSATERTEWYPALVISPSCNDDITVKKDQCLVRSFIDSKFYSIARKDIKEVDILNLPESELSTKPGLQKASIFLKTRVVPDNWKMDISEILESSSSDDEDGPAEENDEEKEKEAKKTEEEVPEEELDPEERDNFLQQLYKFMEDRGTPINKPPVLGYKDLNLFKLFRLVYHQGGCDNIDSGAVWKQIYMDLGIPILNSAASYNVKTAYRKYLYGFEEYCRSANIQFRTVHHHEPKVKEEKKDLEESMEEALKLDQEMPLTEVKSEPEENIDSNSESEREEIELKSPRGRRRIARDVNSIKKEIEEEKTEDKLKDNDTENKDVDDDYETAEKKENELLLGRKNTPKQKEKKIKKQEDSDKDSDEEEEKSQEREETESKCDSEGEEDEEDMEPCLTGTKVKVKYGRGKTQKIYEASIKSTEIDDGEVLYLVHYYGWNVRYDEWVKADRIIWPLDKGGPKKKQKKKAKNKEDSEVDEKRDEERQKSKRGRPPLKSTLSSNMPYGLSKTANSEGKSDSCSSDSETEDALEKNLINEELSLKDELEKNENLNDDKLDEENPKISAHILKENDRTQMQPLETLKLEVGENEQIVQIFGNKMEKTEEVKKEAEKSPKGKGRRSKTKDLSLEIIKISSFGQNEAGSEPHIEAHSLELSSLDNKNFSSATEDEIDQCVKEKKLKRKILGQSSPEKKIRIENGMEMTNTVSQERTSDCIGSEGMKNLNFEQHFERENEGMPSLIAESNQCIQQLTSERFDSPAEETVNIPLKEDEDAMPLIGPETLVCHEVDLDDLDEKDKTSIEDVAVESSESNSLVSIPPALPPVVQHNFSVASPLTLSQDESRSVKSESDITIEVDSIAEESQEGLCERESANGFETNVASGTCSIIVQERESREKGQKRPSDGNSGLMAKKQKRTPKRTSAAAKNEKNGTGQSSDSEDLPVLDNSSKCTPVKHLNVSKPQKLARSPARISPHIKDGEKDKHREKHPNSSPRTYKWSFQLNELDNMNSTERISFLQEKLQEIRKYYMSLKSEVATIDRRRKRLKKKDREVSHAGASMSSASSDTGMSPSSSSPPQNVLAVECR”, for which the protein production entry is “not failed”. The same measure for “MKAALLDQVARVGKALANGRRLQILDLLAQGERAVEAIATATGMNLTTASANLQALKSGGLVEARREGTRQYYRIAGEDVARLFALVQVVADEHLADVAVLEHHHHHH”: “failed”; for “MKADDSRFFSFLKDRIGLDVTSVGEAIIERALRQRAKAANCADSDDYWHLLISSPQEQQALIEAVIVPETWFFRYPESFVTLGMLARERIASLAGVRPLRILSLPCSTGEEPYSIAMALFDAGVDARQFKVDAVDISPVSIAKAVHGIYGKNSFRGSDLSYRERFFSAITDGFEVADEIRACVNFQPGNLLDPKLASQVPYDIVFCRNLVIYFDRPTQQRVFQVLKQLTREDGLLFIGPAEGNLLAGIGMRSIGIAQSFAFRHAPAEAAAPAQVQAAAPIAPRPVVEAPARSPAPTPRPAARTSAAFAPLAKPAAAAGNSEVSALLDTIAGLANEGKSAEARAACERYLQQHEPVAQVFYWLGLLSEVEGAVVQAQGFYRKALYLQPQHRESLAQLAALLAAQGDSAGARRLQDRAARGANKQGNH”: “failed”. The same measure for “MKAFTVHQAKTHLSRLLKAVEEGEEVVILRGKTPVARLVPYRKGKRPLGFVPGKLPESFFEPLPEEELALWEGATS”: “not failed”. Turning to “MKAKGNQKTKVNIVTLGCSKNLVDSENLLTQLRGNGIEAEHESKNDNSNVVVINTCGFIDNAKQESIDTILRYIDAKENGLIDKIYVSGCLSQRYKDDMEREMPQVDAFFGSNELPAILKKFRADYKHELVGERLLTTPSHYAYVKIAEGCDRPCSFCAIPVMRGKHVSTPMEDLVKQAKGMAAKGTKELILIAQDLTYYGLDIYKKRNLSDLLKNLSDVEGIDWIRLQYAYPSGFPLDVLDVMAERSNICKYIDMPLQHGSSDMLKLMRRGIDRPKTEDLIKTIRDKVPGIAFRTTMIIGHPGETEKDFDELCSFVEEQRFDRLGAFTYSHEEHTHSYSMEDTIPQEEKEERQATIMSIQEGISAELNEKKIGNTYKVLFDRKEGGYFIGRTEHDSPEVDNEVMVSAKDQYVRIGDFANVKINDAAEFDLFGEIVK”, the protein production result is “failed”. The entry for “MKALASRGTRNHLAGEAAENSVLRDYERRGYHLVRRRWRGRCGEIDLIARSGDEVVFVEVKQSRDFARAAESLGARQMKRLHAAAAEFLAEEPDGQLTPMRFDVALVDGTGRLEIVENAFGHG” is “failed”; for “MKALIFAAAGLLLLLPTFCQSGMENDTNNLAKPTLPIKTFRGAPPNSFEEFPFSALEGWTGATITVKIKCPEESASHLHVKNATMGYLTSSLSTKLIPAIYLLVFVVGVPANAVTLWMLFFRTRSICTTVFYTNLAIADFLFCVTLPFKIAYHLNGNNWVFGEVLCRATTVIFYGNMYCSILLLACISINRYLAIVHPFTYRGLPKHTYALVTCGLVWATVFLYMLPFFILKQEYYLVQPDITTCHDVHNTCESSSPFQLYYFISLAFFGFLIPFVLIIYCYAAIIRTLNAYDHRWLWYVKASLLILVIFTICFAPSNIILIIHHANYYYNNTDGLYFIYLIALCLGSLNSCLDPFLYFLMSKTRNHSTAYLTK” it is “failed”. The same measure for “MKALIFAAGFGERMRPLTEHTPKPLLSVGGTPLIVWHLRKLAALGVDEVVINTSWLAEQFPQVLGDGSAFGLRLTYSYEGATPLETGGGMLHALPLLGDAPFLLVNGDIWTDFDFARLSHAPDGLAQLVLVDQPSYATRADFALDADGNVRADLPASLTYSGIGMYRPALLRDWQSVIGQLPEQPCTAPRFALAPILRAQMTARLINGIHHSGRWTDVGTPQRLAELDAQLLRDGS”: “failed”; for “MKALNDSYDVVVVGAGPAGSMASYNASKNGAKTLLIEKSQEIGTPVRCAEAVPRLEDFGINPDPSFVKSYIRGGYLIAPNGKKIVVKGGKTDGYVVERKVFDKFLAIRSGQAGTQIAVKSRVTKIEKTDDGYNVFVNYLGDEYIVKSKIVIAADGVESNIAEYAGLKSKKNPKEICSCAEYEMTNVKLLNNEMMEFYFGDICPKGYIWLFPKGDTVNVGIGVIDSKKRAIDYLDEFLTHPLVEGRLDNAVPVEFKVGGDPVGGPIKKTVADNIMVVGDAAGHVSPLTGGGIGLSMDCGLMAGDVAAQSIKAENYSEEFLDLYEKKWKEKYYKLLMNDLKYKNILQKLSDDELNAIANSIPENLEEVDVGKLAIKIVAKAPSLLRHFKELL”: “failed”.

Turning to “MKALTVNKTIFILVIAASLLLGAAVGYIAHSLTAGGGGVVVTGSKAVSTGTSIGVYLTIKNNTNTTSCIVGADIAESVSGKVVVDIHKTVEEGGRVVMMPAGPICLGPGETLEMRQGPGSYHVMIMGDRSAIEKITEDGVVEIKVLVEQQVDAPITGP”, the protein production entry is “failed”.
